Earlier results, collected in article PMC7321218, “Synthetic (E)-3-Phenyl-5-(phenylamino)-2-styryl-1,3,4-thiadiazol-3-ium Chloride Derivatives as Promising Chemotherapy Agents on Cell Lines Infected with HTLV-1” (Molecules, 2020).

System: adult T-cell leukemia/lymphoma (ATLL)
Parameters: method as in PMID 25733162
Conditions: in combination with multi-agent chemotherapy, improved from 33%; cited from earlier work

B1: Mogamulizumab: anti-CCR4 monoclonal antibody (antibody, chains of the INN, looked up, V domains shown)
VH: EVQLVESGGDLVQPGRSLRLSCAASGFIFSNYGMSWVRQAPGKGLEWVATISSASTYSYYPDSVKGRFTISRDNAKNSLYLQMNSLRVEDTALYYCGRHSDGNFAFGYWGQGTLVTVSS
VL: DVLMTQSPLSLPVTPGEPASISCRSSRNIVHINGDTYLEWYLQKPGQSPQLLIYKVSNRFSGVPDRFSGSGSGTDFTLKISRVEAEDVGVYYCFQGSLLPWTFGQGTKVEIK
For B1, the therapy response is listed as 52%.
